This note sets out measurements from patent publication US20030092616A1, “STAT6 activation gene” (priority 2001, published 2003).

For this series, the system named is STAT6. In words: Screening of full-length cDNA clones for promotion of STAT6 activation (luciferase reporter N4×8-luc). The conditions noted are these: NIH3T3 cells cotransfected with N4×8-luc reporter and cDNA plasmid; 48 h culture, then mouse IL-4 0.5 ng/ml for 6 h. It is filed as cell-based. The essentials:
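NIH3T3 cells cotransfected with STAT6-responsive N4×8-luc reporter (100 ng) and full-length cDNA, cultured 48 h, then given mouse IL-4 at 0.5 ng/ml final for 6 h. Luciferase activity compared with reporter plus null-vector control.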
Background: Reporter assays use an easily measured gene product as a stand-in for the process of interest.

B1: 413 (nucleic acid, listed as Homo sapiens)
chain: GAGGAGGCCGCGCCAGTGACAGCGATGGCGGCGGAGTCGGCGCTCCAAGTTGTGGAGAAGCTGCAGGCGCGCCTGGCCGCGAACCCGGACCCTAAGAAGCTATTGAAATATTTGAAGAAACTCTCCACCCTGCCTATTACAGTAGACATTCTTGCGGAGACTGGGGTTGGGAAAACAGTAAATAGCTTGCGAAAACACGAGCATGTTGGAAGCTTTGCCAGGGACCTAGTGGCCCAGTGGAAGAAGCTGGTTCCTGTGGAACGAAATGCTGAGCCTGATGAACAGGACTTTGAGAAGAGCAATTCCCGAAAGCGCCCTCGGGATGCCCTGCAGAAGGAGGAGGAGATGGAGGGGGACTACCAAGAAACCTGGAAAGCCACGGGGAGCCGATCCTATAGCCCTGACCACAGGCAGAAGAAACATAGGAAACTCTCGGAGCTCGAGAGACCTCACAAAGTGTCTCACGGTCATGAGAGGAGAGATGAGAGAAAGAGGTGTCACAGAATGTCACCAACTTACTCTTCAGACCCTGAGTCTTCTGATTATGGCCATGTTCAATCCCCTCCATCTTGTACCAGTCCTCATCAGATGTACGTCGACCACTACAGATCCCTGGAGGAGGACCAGGAGCCCATTGTTTCACACCAGAAGCCTGGGAAAGGCCACAGCAATGCCTTTCAGGACAGACTCGGGGCCAGCCAAGAACGACACCTGGGTGAACCCCATGGGAAAGGGGTTGTGAGTCAAAACAAGGAGCACAAATCTTCCCACAAGGACAAACGCCCCGTGGATGCCAAGAGTGATGAGAAGGCCTCTGTGGTGAGCAGAGAGAAATCACACAAGGCCCTCTCCAAAGAGGAGCCGGCCTATGATGGCCCAAGCACCAGCAGTGCCCACTTGGCACCAGTGGTCAGCAGCACTGTTTCCTATGATCCTAGGAAACCCACTGTGAAGAAAATTGCCCCAATGATGGCCAAGACAATTAAAGCTTTCAAGAACAGATTCTCCCGACGATAAACTGAGGACTTGCCTTGGAAATGGAATCTGGGGAGGCAGGAATACAAGGACAGTGGGGGTTGGGGAATGGAATTCTACAGGAGACTGGAGTCTTGCTTTGTGGATCCTTTTGGTCTCCGAGTCCTGCAGTCTGCAGGTGCTGCCCCTGGGAACCTGCGTGCCACAGCCCCGCCTCCCTGCCTGGAGCACACTTTAGAATTCTGAAGATGTGAAGCCTCTGTCTCACTGAGGATTTTAAAGGTCAATTATACTTTTGTTGTTCATTAGCATCTTTGTAAACTATAAGACGTAGTTTTAATTAATAAATATTGCCCCCAGATTGTATTT
modifications: CDS (25)..(1014)
As to B1, the “Activity = (luciferase activity of the gene of each SEQ ID NO:)/(luciferase activity of pME18S-FL3)” value is recorded as 3.4.

B2: 159 (nucleic acid, listed as Homo sapiens)
chain: CCGGCGGGCTGGTGAGGAATGGAGCCGGTAGGCTGCTGCGGCGAGTGCCGCGGCTCCTCCGTAGACCCGCGGAGCACCTTCGTGTTGAGTAACCTGGCGGAGGTGGTGGAGCGTGTGCTCACCTTCCTGCCCGCCAAGGCGTTGCTGCGGGTGGCCTGCGTGTGCCGCTTATGGAGGGAGTGTGTGCGCAGAGTATTGCGGACCCATCGGAGCGTAACCTGGATCTCCGCAGGCCTGGCGGAGGCCGGCCACCTGGAGGGGCATTGCTTGGTTCGCGTGGTAGCAGAGGAGCTTGAGAATGTTCGCATCTTACCACATACAGTTCTTTACATGGCTGATTCAGAAACTTTCATTAGTCTGGAAGAGTGTCGTGGCCATAAGAGAGCAAGGAAAAGAACTAGTATGGAAACAGCACTTGCCCTTGAGAAGCTATTCCCCAAACAATGCCAAGTCCTTGGGATTGTGACCCCAGGAATTGTAGTGACTCCAATGGGATCAGGTAGCAATCGACCTCAGGAAATAGAAATTGGAGAATCTGGTTTTGCTTTATTATTCCCTCAAATTGAAGGAATAAAAATACAACCCTTTCATTTTATTAAGGATCCAAAGAATTTAACATTAGAAAGACATCAACTCACTGAAGTAGGTCTTTTAGATAACCCTGAACTTCGTGTGGTCCTTGTCTTTGGTTATAATTGCTGTAAGGTGGGAGCCAGTAATTATCTGCAGCAAGTAGTCAGCACTTTCAGTGATATGAATATCATCTTGGCTGGAGGCCAGGTGGACAACCTGTCATCACTGACTTCTGAAAAGAACCCTCTGGATATTGATGCCTCGGGTGTGGTTGGACTGTCATTTAGTGGACACCGAATCCAGAGTGCCACTGTGCTCCTCAACGAGGACGTCAGTGATGAGAAGACTGCTGAGGCTGCGATGCAGCGCCTCAAAGCGGCCAACATTCCAGAGCATAACACCATTGGCTTCATGTTTGCATGCGTTGGCAGGGGCTTTCAGTATTACAGAGCCAAGGGGAATGTTGAGGCTGATGCATTTAGAAAGTTTTTTCCTAGTGTTCCCTTATTCGGCTTCTTTGGAAATGGAGAAATTGGATGTGATCGGATAGTCACTGGGAACTTTATATTGAGGAAATGTAATGAGGTAAAAGATGATGATCTGTTTCATAGCTATACAACAATAATGGCACTCATACATCTGGGGTCATCTAAATAATAATTAAAGTGGCTTTCATAATATGT
modifications: CDS (19)..(1227)
As for B2, the “Activity = (luciferase activity of the gene of each SEQ ID NO:)/(luciferase activity of pME18S-FL3)” value is listed as 19.1.

B3: 423 (nucleic acid, listed as Homo sapiens)
chain: AAAAAAAAAGCTGGGAGCCGCCGCCCCCGCAGCTGCTGCCGCCGCCGCCAGGGCCCGGACTCGGACGCGTGGTAGCCCCAGGATGGGTGAGTTCAACGAGAAGAAGACAACATGTGGCACCGTTTGCCTCAAGTACCTGCTGTTTACCTACAATTGCTGCTTCTGGCTGGCTGGCCTGGCTGTCATGGCAGTGGGCATCTGGACGCTGGCCCTCAAGAGTGACTACATCAGCCTGCTGGCCTCAGGCACCTACCTGGCCACAGCCTACATCCTGGTGGTGGCGGGCACTGTCGTCATGGTGACTGGGGTCTTGGGCTGCTGCGCCACCTTCAAGGAGCGTCGGAACCTGCTGCGCCTGTACTTCATCCTGCTCCTCATCATCTTTCTGCTGGAGATCATCGCTGGTATCCTCGCCTACGCCTACTACCAGCAGCTGAACACGGAGCTCAAGGAGAACCTGAAGGACACCATGACCAAGCGCTACCACCAGCCGGGCCATGAGGCTGTGACCAGCGCTGTGGCAGCAACAACTCACAGGACTGGCGAGACAGTGAGTGGATCCGCTCACAGGAGGCCGGTGGCCGTGTGGTCCCAGACAGCTGCTGCAAGACGGTGGTGGCTCTTTGTGGGCAGCGAGACCATGCCTCCAACATCTACAAGGTGGAGGGCGGCTGCATCACCAAGTTGGAGACCTTCATCCAGGAGCACCTGAGGGTCATTGGGGCTGTGGGGATCGGCATTGCCTGTGTGCAGGTCTTTGGCATGATCTTCACGTGCTGCCTGTACAGGAGTCTCAAGCTGGAGCACTACTGACCCTGCCTTGGGCCTTGCTGCTGCTGCACCCAACTACTGAGCTGAGACCACTGAGTACCAGGGGCTGGGCTCCCTGATGACACCCACCCTGTGCCATCACCATAACCTCTGGGGACCCCAACCTCAGAGGCAGCTTCAAGTGCCTTTTGCTGCGCACCAATGCCCAGCAGGGGAGGTGAGGGGGGCTGGCGGGGCGAAGTTTGGGGGGTGTTTTGTGGGGCTCCCCAGACACACTCTCTGCCTGGTGGTCAGATGCAGGTTGGAAGGGGCCTTGCTGAGTGGCGCAAGGCCGAGCGTTCCCAGCAGGGGGAGAAACCCTTCACACCCCAGGCCCTTCAGGAACTGGGGCCTTGCCTTGCAGCCACATGGCCCCATCCCAGTTGGGGAAGCCAGGTGAGCTCTGACCCTTGGGCCTGGGCCTCTGCCCCTCCCAACCCAGCCCTCGTCTCCCTCGACAGCGCCCCTGCTGTCTTCCCCACCGCAGTCACCACCACCCGAAATGCCACGTGGTCACTGTGCACTGCCCTGTCCATGTGCCTCTGCGGGGCAGGGCCTTCCTGGTTTTGTTCACTGCTGTACCCAGATGCCTACAACCATCCCTGCCACATACAGGTGCTCAATAAACACTTGTAGAGCAGATGG
modifications: CDS (83)..(709)
Regarding B3, the “Activity = (luciferase activity of the gene of each SEQ ID NO:)/(luciferase activity of pME18S-FL3)” value is 4.8.

B4: 397 (nucleic acid, listed as Homo sapiens)
chain: ACAGATGAAACTTTTTAGGTCTCAAAGAAATCTTTACATTTCTGGATTTTCCCTATTTTTTTGGCTAGTTTTGAGACGTCTGGTTACGCTTATTACTCAACTGGCAAAAGAACTGTCAAACAAAGGTGTACTTAAAACTCAAGCAGAAAATACTAACAAGGCTGCCAAAAAATTTATGGAAGAAAACGAAAAACTAAAAAGGATTTTGAAAAGCCATGGTAAAGATGAAGAATGTGTTTTGGAAGCAGAAAATAAAAAACTAGTAGAAGACCAGGAGAAACTGAAAACTGAATTAAGGAAGACTTCAGATGCCCTTTCTAAGGCACAAAATGATGTGATGGAAATGAAGATGCAGTCAGAGAGACTTTCGAAAGAATATGATCAACTCCTGAAAGAACACTCTGAACTTCAGGATCGTTTAGAAAGAGGCAACAAGAAAAGACTGTGAACTTTATAAAAGACACTTGCAATATACTGTGTCAAAATGATAATTTTGTTATGTTAGCCTCTAGAAAATTTAAGTTCAGAAAAATGCACTATGACCGGTTCGTAATTTTTTTAATGCCACACATAGGTTGTATTGTAATGGCATTATCAAAATATTTGATGATGTTTCAGATATATTGCAAAGTCTGTATTCCAGCTCTTAAGAAAAATATAAGCATGTTAAATACCATATTTACATATTGATAATGTCATTGGTATATGGTGGCTGTTTACCAATAAAAGGAAAAAATTCATT
modifications: CDS (5)..(445)
On to B4, for which the “Activity = (luciferase activity of the gene of each SEQ ID NO:)/(luciferase activity of pME18S-FL3)” value is reported as 32.6.

B5: 417 (nucleic acid, listed as Homo sapiens)
chain: ATTCCTCCCAGGGACCCCAGACCTCTGTCTCTCTCGGCAGGCCTTGGCTCCTTGAACTTTTGGCCGCCATGTACTTCCCGAAGGTCCTCTCTGATGACATGAAGAAGCTGAAGGCCCGAATGCACCAGGCCATAGAAAGATTTTATGATAAAATGCAAAATGCAGAATCAGGACGTGGACAGGTGATGTCGAGCCTGGCAGAGCTGGAGGACGACTTCAAAGAGGGCTACCTGGAGACAGTGGCGGCTTATTATGAGGAGCAGCACCCAGAGCTCACTCCTCTACTTGAAAAAGAAAGAGATGGATTACGGTGCCGAGGCAACAGATCCCCTGTCCCGGATGTTGAGGATCCCGCAACCGAGGAGCCTGGGGAGAGCTTTTGTGACAAGGTCATGAGATGGTTCCAGGCCATGCTGCAGCGGCTGCAGACCTGGTGGCACGGGGTTCTGGCCTGGGTGAAGGAGAAGGTGGTGGCCCTGGTCCATGCAGTGCAGGCCCTCTGGAAACAGTTCCAGAGTTTCTGCTGCTCTCTGTCAGAGCTCTTCATGTCCTCTTTCCAGTCCTACGGAGCCCCACGGGGGGACAAGGAGGAGCTGACACCCCAGAAGTGCTCTGAACCCCAATCCTCAAAATGAAGATACTGACACCACCTTTGCCCTCCCCGTCACCGCGCACCCACCCTGACCCCTCCCTCAGCTGTCCTGTGCCCCGCCCTCTCCCGCACACTCAGTCCCCCTGCCTGGCGTTCCTGCCGCAGCTCTGACCTGGTGCTGTCGCCCTGGCATCTTAATAAAACCTGCTTATACTTCCCTGGC
modifications: CDS (69)..(632)
On to B5, for which the “Activity = (luciferase activity of the gene of each SEQ ID NO:)/(luciferase activity of pME18S-FL3)” value was 13.4.
